Experimental data as given in patent US6960343B2, “Toll/interleukin-1 receptor adapter protein (TIRAP)” (Yale University School of Medicine, priority 2001, dated 2005).

Experiments:
TLR9 = molecular target: T1, TLR9 (Homo sapiens, UniProt Q9NR96); assay: NF-κB activation by CpG stimulation of TLR9-transfected 293T cells; type: cell-based; details: 100 ng, 250 ng construct, CpG 3 μM
T1 construct: TLR9 (encodes full length TLR9); expressed in transfected cells; host or cells: 293T cells
T1 sequence (Q9NR96 26-1032): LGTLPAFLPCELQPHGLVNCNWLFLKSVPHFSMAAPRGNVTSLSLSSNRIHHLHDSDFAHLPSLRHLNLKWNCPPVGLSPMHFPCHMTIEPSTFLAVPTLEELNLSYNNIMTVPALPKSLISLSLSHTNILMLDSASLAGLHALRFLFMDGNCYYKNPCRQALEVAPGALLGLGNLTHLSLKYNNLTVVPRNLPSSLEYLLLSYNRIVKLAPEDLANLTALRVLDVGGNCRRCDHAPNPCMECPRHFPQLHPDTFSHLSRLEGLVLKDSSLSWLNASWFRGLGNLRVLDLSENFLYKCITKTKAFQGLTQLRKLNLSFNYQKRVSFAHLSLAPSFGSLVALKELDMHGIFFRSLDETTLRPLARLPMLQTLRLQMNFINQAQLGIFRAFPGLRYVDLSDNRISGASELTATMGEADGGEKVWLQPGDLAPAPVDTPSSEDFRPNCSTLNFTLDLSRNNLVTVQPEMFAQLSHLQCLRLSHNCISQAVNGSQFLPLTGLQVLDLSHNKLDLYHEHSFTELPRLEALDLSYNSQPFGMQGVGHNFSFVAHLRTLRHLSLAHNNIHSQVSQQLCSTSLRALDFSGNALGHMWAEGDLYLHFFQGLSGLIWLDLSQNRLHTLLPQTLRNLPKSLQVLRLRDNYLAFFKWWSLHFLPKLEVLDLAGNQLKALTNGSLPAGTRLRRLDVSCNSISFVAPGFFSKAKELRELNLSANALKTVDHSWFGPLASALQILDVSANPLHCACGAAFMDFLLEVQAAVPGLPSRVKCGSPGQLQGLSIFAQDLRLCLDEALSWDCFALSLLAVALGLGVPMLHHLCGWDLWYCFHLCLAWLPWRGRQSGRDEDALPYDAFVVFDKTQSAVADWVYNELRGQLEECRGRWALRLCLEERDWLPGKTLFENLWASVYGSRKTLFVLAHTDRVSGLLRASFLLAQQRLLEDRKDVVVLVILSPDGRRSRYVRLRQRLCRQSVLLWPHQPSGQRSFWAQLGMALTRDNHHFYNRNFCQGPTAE
Procedure: To determine whether TIRAP inhibits NF-κB activation induced by CpG-stimulation of TLR9-transfected cells, 293T cells were transfected with vector alone (pcDNA3), TLR9 (50 ng), with or without increasing concentrations (100 ng, 250 ng) of either TIRAP P125H or MyD88 DN. At twenty-four h post transfection, CpG oligonucleotides were added at 3 μM final concentration to TLR9-transfected samples and incubated for 14 more hours before harvesting. […] Thus, TIRAP appears to function downstream of TLR4 but not IL-1R or TLR9, and is likely to be the adapter in the MyD88-independent pathway downstream of TLR4.

TLR4 = molecular target: T2, TLR4 (Homo sapiens, UniProt O00206); assay: Co-immunoprecipitation with Myc-tagged TLR4 in 293T cells; type: binding; details: 293T cell lysates, anti-Flag immunoprecipitation
T2 construct: a Myc-tagged TLR4 deletion construct lacking the ectodomain (Myc TLR4 wt); Myc; expressed in transfected cells; host or cells: 293T cells
T2 sequence (O00206 653-839 limits assumed): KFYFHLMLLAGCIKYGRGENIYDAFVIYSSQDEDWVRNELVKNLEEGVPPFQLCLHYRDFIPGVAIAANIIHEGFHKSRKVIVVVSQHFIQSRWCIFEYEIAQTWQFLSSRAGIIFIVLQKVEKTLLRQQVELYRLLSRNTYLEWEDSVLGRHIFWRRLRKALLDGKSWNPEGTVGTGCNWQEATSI
Excerpt: Cells were transfected in the presence (+) or absence (−) of constructs encoding a wild-type portion of TLR4 (TLR4 wt), a mutant derivative thereof (TLR4 mut), wild-type TIRAP (TIRAP), a mutant TIRAP containing a P125H mutation (TIRAP PH), or wild-type MyD88 (MyD88), wherein each construct further encodes a Myc, Flag, or hemaglutanin (HA) tag, as indicated. Antibodies used for immunoprecipitation (IP) or immunoblot (IB) are indicated to the left of each blot.
To obtain biochemical conformation for a role of TIRAP in the TLR4 signaling pathway, TIRAP-TLR4 protein interactions were evaluated using co-immunoprecipitation experiments. 293T cells were co-transfected with 4.5 μg of a Myc-tagged TLR4 deletion construct lacking the ectodomain (Myc TLR4 wt) or its mutant derivative (Myc TLR4 P714H) in the presence or absence of 1.5 μg of Flag-tagged TIRAP (Flag TIRAP) or its mutant derivative containing the P125H mutation (Flag TIRAP PH). […] Immunocomplexes were washed, separated by SDS-PAGE electrophoresis, and then analyzed by immunoblotting with either anti-myc antibody to look for co-immunoprecipitated TLR4 or anti-Flag antibody to confirm immunoprecipitation of Flag TIRAP or Flag TIRAP P125H. Total cell lysates (35 μg/sample) were likewise analyzed by SDS-PAGE and immunoblotting to confirm equivalent expression of the appropriate proteins in every sample. […]

inhibition of NF-κB activation induced by CpG-stimulation of TLR9-transfected cells (TLR9): did not inhibit
co-immunoprecipitation with TLR4 (TLR4): filed to co-immunoprecipitate
Substance: TIRAP P125H: vector encoding a mutant form of TIRAP containing a proline to histidine mutation at amino acid position 125
